In publication PMC9295680 (Plant Direct, 2022):
Read-outs that look alike come from different tables or passages of the source.

Experiments:
Assay in all cases: SEC-MALS
[1] = biological target: homospermidine synthase (HSS) from Ipomoea alba (Ipomoea alba)
[2] = biological target: homospermidine synthase (HSS) from Distimake quinquefolius individuum 1 (Distimake quinquefolius)
[3] = biological target: homospermidine synthase (HSS) from Distimake quinquefolius individuum 2 (Distimake quinquefolius)
SEC-MALS [4] = biological target: the molecule itself
SEC-MALS [5] = biological target: the molecule itself; remark: listed apart in the source

Molecule “homospermidine synthase (HSS) from Ipomoea alba (enzyme)” has a stoichiometry N [1] of 4.

Work on “homospermidine synthase (HSS) from Distimake quinquefolius individuum 1 (enzyme)” yielded a stoichiometry N [2] of 4.

For “homospermidine synthase (HSS) from Distimake quinquefolius individuum 2 (enzyme)”, the stoichiometry N [3] was 4.

B1: homospermidine synthase (HSS) from Camonea umbellata (enzyme, UniProt A0A6M4MJB9 1-377, looked up)
chain: MGEATRDQNSTMDSAHAAVFKKSESLDGACMKIEGYDFNRGIDYPQLLKSLLSTGFQASNLGEAIQIVNEMLDWRLSHEPIMEDCNDKEKDPAYRDSVTTKIFLGFTSNLVSSGVRETIRYLVQHHMVDVVVTTAGGIEEDLIKCLAPTYKGEFSLRGSVLRSKGLNRIGNLLVPNDNYCKFEDWIIPIFDQMYEEQTKQNVLWTPSKVIARLGKEINDESSYLYWAYKNEIPVFCPSLTDGSLGDMLYFHSFTKEVADNSDRNPGLIVDIVGDIRAMDGEAVHAGSRKTGVLILGGGLPKHHICNANMMRNGADFAAYINTAQEFDGSDSGARPDEAVSWGKIRCEAKTVKVHCDATIAFPLLVAETFATKARKLH
B1 was tested, and the “stoichiometry N” value (SEC-MALS [4]) was 2 and the “stoichiometry N” value (SEC-MALS [5]) was 4.
